According to publication PMC6555533:

System: MBP-p33C (C-terminal soluble portion of p33 replication protein) (Tomato bushy stunt virus)
Experiment: biotin-RNA pull-down, anti-p33 immunoblot
Conditions: EMSA: 10 mM HEPES pH 7.4, 50 mM NaCl, 1 mM DTT, 1 mM EDTA, 5% glycerol, 2.5 mM MgCl2, 0.1 ug tRNA, 2 U RNase inhibitor, 10 ul, 0.1 pmol RNA (EMSA temperature …)

## RII(+)
  binding signal (% of MBP control): 50
